According to publication PMC11359615, “Evaluation of ABD-Linked RM26 Conjugates for GRPR-Targeted Drug Delivery” (ACS Omega, 2024):
Non-standard residues stand in square brackets, D forms with d. maleimide‑DOTA = DOTA attached via maleimide to the Cys thiol; Sta = CC(C)C[C@H](N)[C@@H](O)CC(=O)O; PEG4 = NCCOCCOCCOCCOCCC(=O)O

Columns and labels:
[1] = molecular target: T1, human serum albumin (human, UniProt P02768 25-609); experiment: SPR; Biacore 8K; HSA immobilised on a CM5 chip by amine coupling (1250 RU); constructs at 50, 25, 12.5, 6.25 and 3.125 nM flowed at 30 uL/min in PBS-T (PBS + 0.05% Tween-20, pH 7.4); 150 s association, 3000 s dissociation; 1:1 Langmuir fit; details: both partners purified
T1 construct: human serum albumin (HSA), immobilised by amine coupling; also called HSA

[2] = molecular target: T2, human serum albumin (human, UniProt P02768 25-609); experiment: SPR; Biacore 8K; HSA amine-coupled on CM5 chip (1250 RU); constructs at 50, 25, 12.5, 6.25 and 3.125 nM flowed over at 30 uL/min in PBS-T pH 7.4; 150 s association, 3000 s dissociation; 1:1 Langmuir fit; details: both partners purified
T2 construct: human serum albumin; also called HSA

[3] = molecular target: T3, gastrin-releasing peptide receptor (human (endogenous in PC-3), UniProt P30550 1-384); experiment: radioligand binding; real-time binding kinetics of 111In-labelled conjugates on living GRPR-expressing PC-3 cells; conditions in the Supporting Information; details: one partner purified
T3 construct: gastrin-releasing peptide receptor on GRPR-expressing PC-3 cells; also called GRPR; source: endogenous, on living PC-3 cells
T3 sequence (P30550 whole entry): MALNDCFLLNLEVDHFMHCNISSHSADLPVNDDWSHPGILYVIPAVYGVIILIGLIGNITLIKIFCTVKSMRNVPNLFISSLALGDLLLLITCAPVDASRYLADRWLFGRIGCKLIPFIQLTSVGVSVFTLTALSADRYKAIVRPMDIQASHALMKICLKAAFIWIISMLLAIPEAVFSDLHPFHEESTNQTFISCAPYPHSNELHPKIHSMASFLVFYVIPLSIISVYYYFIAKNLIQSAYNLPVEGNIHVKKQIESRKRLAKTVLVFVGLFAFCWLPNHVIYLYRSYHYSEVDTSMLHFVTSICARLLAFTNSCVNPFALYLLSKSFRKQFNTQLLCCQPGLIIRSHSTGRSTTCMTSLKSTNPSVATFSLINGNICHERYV

Row | Binder | koff [1] | kon [1] | Kd [2] | Kd [3] | koff [3] | kon [3]
1 | ABD-Cys14 control (recombinant ABD035 with N-terminal MEDANS, a Cys, a C-terminal Sortase A recognition sequence and a His-tag) (designed binder, also called ABD control; MEDANS-ABD; source: E. coli BL21 (DE3)*, purified (IMAC, HisPur Cobalt resin)) MEDANSLAEAKVLANRELDKYGVSDFYCRLINKAKTVEGVEALKLHILAALPVDGSGSGSLPETGG | 0.00024 s⁻¹ | 1.8e+07 M⁻¹ s⁻¹ | – | – | – | –
2 | ABD (albumin-binding domain; recombinant ABD035 with N-terminal MEDANS, a Cys and a C-terminal Sortase A recognition sequence and His-tag) (designed binder, also called ABD control; unconjugated ABD; source: E. coli BL21 (DE3)*, purified (IMAC, HisPur Cobalt resin); not shown: His6, C-terminal, kept) MEDANSLAEAKVLANRELDKYGVSDFYCRLINKAKTVEGVEALKLHILAALPVDGSGSGSLPETGG | – | – | 0.013 nM | – | – | –
3 | ABD-RM26 Gen 2A conjugate (designed binder, numbers in words are those of the source; also: DOTA loaded with 111In in cell assays) MEDANSLAEAKVLANRELDKYGVSDFYC(maleimide‑DOTA)RLINKAKTVEGVEALKLHILAALPVDGSGSGSLPETGGG[PEG4][dF]QWAVGH[Sta]L-NH2 | – | – | 0.048 nM | 120 ± 140 nM | 0.013 s⁻¹ | 670000 M⁻¹ s⁻¹
